Test results reported in PMC3115401 (Traffic (Copenhagen, Denmark), 2011).
Numbering of substitutions follows the chain as printed. Numbers in names are those of the source.

What was measured:
[1] = target: T1, GST-Rtt109 (S. cerevisiae, UniProt Q07794 1-436); assay: pull-down
T1 sequence (looked up): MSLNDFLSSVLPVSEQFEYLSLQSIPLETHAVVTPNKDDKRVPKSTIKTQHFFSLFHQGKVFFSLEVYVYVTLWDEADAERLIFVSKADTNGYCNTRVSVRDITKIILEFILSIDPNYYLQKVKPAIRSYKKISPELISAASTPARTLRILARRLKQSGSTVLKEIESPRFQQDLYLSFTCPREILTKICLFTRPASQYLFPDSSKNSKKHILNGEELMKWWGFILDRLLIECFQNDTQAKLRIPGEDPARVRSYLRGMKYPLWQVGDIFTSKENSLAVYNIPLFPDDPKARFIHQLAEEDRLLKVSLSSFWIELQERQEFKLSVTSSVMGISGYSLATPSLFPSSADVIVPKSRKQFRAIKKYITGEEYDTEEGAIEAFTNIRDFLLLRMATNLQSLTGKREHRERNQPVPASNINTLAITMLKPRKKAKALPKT

[2] = target: T2, GST-Kap60 (S. cerevisiae, UniProt Q02821 1-542); assay: pull-down
T2 sequence (looked up): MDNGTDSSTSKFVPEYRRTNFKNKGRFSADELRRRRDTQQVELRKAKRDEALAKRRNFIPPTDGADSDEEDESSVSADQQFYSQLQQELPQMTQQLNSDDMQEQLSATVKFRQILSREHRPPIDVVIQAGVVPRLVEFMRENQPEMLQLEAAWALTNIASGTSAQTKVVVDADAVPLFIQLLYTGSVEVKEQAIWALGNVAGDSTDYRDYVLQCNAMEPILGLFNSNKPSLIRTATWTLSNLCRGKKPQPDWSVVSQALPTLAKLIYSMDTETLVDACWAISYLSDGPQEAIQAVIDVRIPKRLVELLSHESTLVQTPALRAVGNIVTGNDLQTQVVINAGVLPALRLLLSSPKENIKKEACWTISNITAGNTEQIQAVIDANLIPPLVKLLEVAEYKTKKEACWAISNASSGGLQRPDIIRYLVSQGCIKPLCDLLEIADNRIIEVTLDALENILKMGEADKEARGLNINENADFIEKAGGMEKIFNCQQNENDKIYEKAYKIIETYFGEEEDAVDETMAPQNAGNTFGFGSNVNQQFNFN

B1: MBP-Vps75 wild type (natural protein, S. cerevisiae, UniProt P53853 1-264, looked up)
chain: MMSDQENENEHAKAFLGLAKCEEEVDAIEREVELYRLNKMKPVYEKRDAYIDEIAEFWKIVLSQHVSFANYIRASDFKYIDTIDKIKVDWLALESEMYDTRDFSITFHFHGIEGDFKEQQVTKVFQIKKGKDDQEDGILTSEPVPIEWPQSYDSINPDLIKDKRSPEGKKKYRQGMKTIFGWFRWTGLKPGKEFPHGDSLASLFSEEIYPFCVKYYAEAQRDLEDEEGESGLSADGDSEDDDGSLGEVDLPLSDEEPSSKKRKV
B1: binds [1]; binds [2].

B2: MBP-Vps75(K260G, K261G) (natural protein, S. cerevisiae, UniProt P53853 1-264, looked up)
chain: B1 chain with K260G, K261G
B2: binds [1].

B3: MBP-Vps75(1–222) (domain or fragment, S. cerevisiae, UniProt P53853 1-222, looked up)
chain: MMSDQENENEHAKAFLGLAKCEEEVDAIEREVELYRLNKMKPVYEKRDAYIDEIAEFWKIVLSQHVSFANYIRASDFKYIDTIDKIKVDWLALESEMYDTRDFSITFHFHGIEGDFKEQQVTKVFQIKKGKDDQEDGILTSEPVPIEWPQSYDSINPDLIKDKRSPEGKKKYRQGMKTIFGWFRWTGLKPGKEFPHGDSLASLFSEEIYPFCVKYYAEAQRD
B3: binds [1].
